Laboratory results as given in patent US20100261252A1.

Molecular target: human IgA1 (human) (UniProt P01876)
Assay: cell-based or functional assay

Chain of UniProt P01876 (P01876 other isoform, or with tags, fused parts or gaps): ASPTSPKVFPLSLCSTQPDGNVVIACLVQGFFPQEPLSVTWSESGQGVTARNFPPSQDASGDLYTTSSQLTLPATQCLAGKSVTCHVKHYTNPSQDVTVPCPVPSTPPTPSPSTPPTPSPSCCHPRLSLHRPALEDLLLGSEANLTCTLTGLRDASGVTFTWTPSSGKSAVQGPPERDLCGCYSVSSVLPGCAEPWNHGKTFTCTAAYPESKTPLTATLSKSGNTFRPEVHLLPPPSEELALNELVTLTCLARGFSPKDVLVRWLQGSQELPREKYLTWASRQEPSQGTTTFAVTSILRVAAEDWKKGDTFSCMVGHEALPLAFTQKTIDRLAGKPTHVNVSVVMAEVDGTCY

## C-terminal His-tagged H. influenzae IgA1 protease (proteolytic protease domain, lacking the α protein and β-core domains) (from UniProt P44969 26-1014) (enzyme)
  human IgA1 cleavage activity of purified refolded IgA1 protease (Experion automated electrophoresis) (ng IgA1/uL/min/ng protease): 50
